Assays:
[1] = tested on: T1, CYP6AA3 reconstituted with rat CYPOR; assay: benzyloxyresorufin O-dealkylation, fluorescence of resorufin, microsomes + purified CYPOR; format: biochemical, Anopheles minimus; details: 50 mM Tris-HCl pH 7.5; rat CYPOR as redox partner; apparent Km; read-out: CYP3AA3-mediated BROD activity (pmole resorufin produced/min/pmol P450) ^a / Km
T1 construct: CYP6AA3 in Sf9 baculovirus microsomes; purified rat CYPOR (pIN-rat CYPOR, E. coli C43 (DE3), Ni-NTA) added, ratio 3:1; with NADPH--cytochrome P450 reductase (Rattus norvegicus)

[2] = tested on: T2, CYP6AA3 reconstituted with flAnCYPOR; assay: as above; format: biochemical, Anopheles minimus; details: 50 mM Tris-HCl pH 7.5; wild-type flAnCYPOR; apparent Km; read-out: CYP3AA3-mediated BROD activity (pmole resorufin produced/min/pmol P450) ^a / Km
T2 construct: CYP6AA3 in Sf9 baculovirus microsomes; with NADPH--cytochrome P450 reductase

Δ55AnCYPOR = target: T3, Δ55AnCYPOR (Anopheles minimus, UniProt A4ZIT2); assay: flavin content of purified protein, fluorometric; format: binding; details: co-purified flavin; no affinity constant
T3 construct: soluble form lacking the N-terminal membrane region (Δ55), pET28a vector, expressed in E. coli BL21 (DE3), purified
T3 sequence (A4ZIT2 56-679): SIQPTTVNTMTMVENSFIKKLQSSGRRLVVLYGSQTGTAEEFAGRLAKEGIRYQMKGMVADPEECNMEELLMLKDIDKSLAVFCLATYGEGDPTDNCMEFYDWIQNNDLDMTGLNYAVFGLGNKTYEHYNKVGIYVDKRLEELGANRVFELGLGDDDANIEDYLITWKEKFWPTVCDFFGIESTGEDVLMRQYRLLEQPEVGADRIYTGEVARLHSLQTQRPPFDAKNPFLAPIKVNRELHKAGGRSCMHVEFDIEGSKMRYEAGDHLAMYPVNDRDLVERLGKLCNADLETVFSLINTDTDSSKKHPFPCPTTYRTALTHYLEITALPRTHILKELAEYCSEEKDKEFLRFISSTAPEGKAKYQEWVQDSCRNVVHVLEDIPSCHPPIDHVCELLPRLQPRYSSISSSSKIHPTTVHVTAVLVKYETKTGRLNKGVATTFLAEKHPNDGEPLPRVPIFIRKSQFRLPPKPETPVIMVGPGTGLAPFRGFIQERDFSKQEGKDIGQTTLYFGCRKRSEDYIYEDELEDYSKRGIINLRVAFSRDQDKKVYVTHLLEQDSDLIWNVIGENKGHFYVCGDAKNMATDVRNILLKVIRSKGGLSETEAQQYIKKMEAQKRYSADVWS
Text: flavin content of purified protein, fluorometric on Δ55AnCYPOR

[3] = tested on: NC(=O)C1=CN([C@@H]2O[C@H](COP(=O)(O)OP(=O)(O)OC[C@H]3O[C@@H](n4cnc5c(N)ncnc54)[C@H](OP(=O)(O)O)[C@@H]3O)[C@@H](O)[C@H]2O)C=CC1; assay: purified protein; format: biochemical, Anopheles minimus; details: 0.1 M Tris-Cl pH 7.5, 25 °C, co-substrate cytochrome c, extra flavins added
purified protein = substrate: NC(=O)C1=CN([C@@H]2O[C@H](COP(=O)(O)OP(=O)(O)OC[C@H]3O[C@@H](n4cnc5c(N)ncnc54)[C@H](OP(=O)(O)O)[C@@H]3O)[C@@H](O)[C@H]2O)C=CC1; assay: purified protein; details: 0.1 M Tris-Cl pH 7.5, 25 °C, co-substrate cytochrome c, extra flavins added

`O=c1ccc2nc3ccc(OCc4ccccc4)cc3oc-2c1` [benzyloxyresorufin] was tested, and the Km [1] was 1.69 ± 0.24 µM and the Km [2] was 1.9 ± 0.61 µM.

For `Cc1cc2nc3c(=O)[nH]c(=O)nc-3n(C[C@H](O)[C@H](O)[C@H](O)COP(=O)(O)O)c2cc1C` [FMN], the “FMN ^a” value (Δ55AnCYPOR) was 0.52 ± 0.01 mol/mol.

In the case of “Δ55AnCYPOR (Anopheles minimus; C427R/L219F/L86F)”, the Km [3] is reported as 7.02 ± 1.75 µM.

“Δ55AnCYPOR (Anopheles minimus; L219F/L86F/W678H)” was tested, and the Km [3] was 1.91 ± 0.44 µM.

For “Δ55AnCYPOR (Anopheles minimus; L219F/L86F/W678A)”, the Km [3] was 3.34 ± 0.83 µM.

With `Cc1cc2nc3c(=O)[nH]c(=O)nc-3n(C[C@H](O)[C@H](O)[C@H](O)COP(=O)(O)OP(=O)(O)OC[C@H]3O[C@@H](n4cnc5c(N)ncnc54)[C@H](O)[C@@H]3O)c2cc1C` [FAD] the “FAD ^a” value (Δ55AnCYPOR) was 0.64 ± 0.03 mol/mol.

For “Δ55AnCYPOR (Anopheles minimus; L219F/L86F)”, the Km [3] was 6.49 ± 1.19 µM.

B1: Δ55AnCYPOR (Anopheles minimus) (protein)
chain: T3 sequence (A4ZIT2 56-679)
B1 showed a Km (purified protein) of 9.61 ± 0.30 µM.
